# According to article PMC8505397, “Development of peptides targeting receptor binding site of the envelope glycoprotein to contain the West Nile virus infection” (Scientific Reports, 2021):
# Several values for one entry are separate records, joined by “and”; a condition that tells them apart may be missing. Identical values can stand only once. Positions of bridges follow the written chain, without caps; N, C: chain ends. No end group written: not given here.
# B1: 7-mer cyclic peptide CP2 (ACX7CGGGS form of CTKTDVHFC) (peptide)
# peptide: ACTKTDVHFCGGGS
# modifications: disulfide 2-10 (inferred)
# notes: additional alanine at the N-terminus (ACX7CGGGS); peptide of phage clone CC2; C-terminal linker; source: E. coli SHuffle T5, purified; N-terminal tag cleaved with enterokinase and removed on nickel beads; not shown: His6, N-terminal, cleaved; 28 aa tag, N-terminal, cleaved
# B2: 7-mer cyclic peptide CP12 (ACX7CGGGS form of CTYENHRTC) (peptide)
# peptide: ACTYENHRTCGGGS
# modifications: disulfide 2-10 (inferred)
# notes: additional alanine at the N-terminus (ACX7CGGGS); peptide of phage clone CC12; C-terminal linker; source: E. coli SHuffle T5, purified; N-terminal tag cleaved with enterokinase and removed on nickel beads; not shown: His6, N-terminal, cleaved; 28 aa tag, N-terminal, cleaved
# B3: 7-mer cyclic peptide CP16 (ACX7CGGGS form of CLAQSHPLC) (peptide)
# peptide: ACLAQSHPLCGGGS
# modifications: disulfide 2-10 (inferred)
# notes: additional alanine at the N-terminus (ACX7CGGGS); peptide of phage clone CC16; C-terminal linker; also called C16; source: E. coli SHuffle T5, purified; N-terminal tag cleaved with enterokinase and removed on nickel beads; not shown: His6, N-terminal, cleaved; 28 aa tag, N-terminal, cleaved
# B4: 7-mer cyclic peptide CP4 (ACX7CGGGS form of CIHSSTRAC) (peptide)
# peptide: ACIHSSTRACGGGS
# modifications: disulfide 2-10 (inferred)
# notes: additional alanine at the N-terminus (ACX7CGGGS); peptide of phage clone CC4; C-terminal linker; source: E. coli SHuffle T5, purified; N-terminal tag cleaved with enterokinase and removed on nickel beads; not shown: His6, N-terminal, cleaved; 28 aa tag, N-terminal, cleaved
# B5: 7-mer cyclic peptide CP15 (ACX7CGGGS form of CDPRHSKFC) (peptide)
# peptide: ACDPRHSKFCGGGS
# modifications: disulfide 2-10 (inferred)
# notes: additional alanine at the N-terminus (ACX7CGGGS); peptide of phage clone CC15; C-terminal linker; source: E. coli SHuffle T5, purified; N-terminal tag cleaved with enterokinase and removed on nickel beads; not shown: His6, N-terminal, cleaved; 28 aa tag, N-terminal, cleaved
# B6: 7-mer cyclic peptide CP6 (ACX7CGGGS form of CMQTQRAHC) (peptide)
# peptide: ACMQTQRAHCGGGS
# modifications: disulfide 2-10 (inferred)
# notes: additional alanine at the N-terminus (ACX7CGGGS); peptide of phage clone CC6; C-terminal linker; source: E. coli SHuffle T5, purified; N-terminal tag cleaved with enterokinase and removed on nickel beads; not shown: His6, N-terminal, cleaved; 28 aa tag, N-terminal, cleaved
# B7: 12-mer linear peptide LP3 (X12GGGS form of SGVYKVAYDWQH) (peptide)
# peptide: SGVYKVAYDWQHGGGS
# notes: peptide of phage clone LC3; C-terminal linker; source: E. coli SHuffle T5, purified; N-terminal tag cleaved with enterokinase and removed on nickel beads; not shown: His6, N-terminal, cleaved; 28 aa tag, N-terminal, cleaved
# Target: T1, interaction between rDIII and ~ 15 kDa receptor of hBMECs (West Nile virus, UniProt P06935)
# T1 construct: rDIII – recombinant domain III; made in house; host or cells: E. coli M15
# T1 sequence (P06935 584-692 limits assumed): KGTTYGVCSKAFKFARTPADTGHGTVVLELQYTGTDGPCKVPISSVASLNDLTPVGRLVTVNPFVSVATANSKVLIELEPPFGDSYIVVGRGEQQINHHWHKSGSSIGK
# Experiment: Blocking of interaction between rDIII and proteins of hBMECs by peptides (Western blot)
# Format: binding, West Nile virus / human
# Conditions: 2.5 µg (0.19 nM) rDIII pre-incubated with tenfold molar excess (1.9 nM) of peptide
# Experimental: (§1) First, concentration-dependent ELISA and Western blot were performed to get the minimum concentration of rDIII required to show its interaction with hBMECs proteins. Details are presented in Supplementary Method S12 and Supplementary Method S13. Subsequently, the ability of 7-mer and 12-mer peptides to block the interaction between rDIII and proteins of hBMECs was tested. A tenfold molar excess of peptides was incubated with rDIII for 1 h at room temperature. Such pre-incubated rDIII was subsequently used in the assays. Details of both methods are described in Supplementary Method S12 and Supplementary Method S13. […]
# Blocking of interaction between rDIII and proteins of hBMECs by peptides (Western blot).
# Two hundred micrograms of proteins extracted from hBMECs were separated on 2-well PAGE […]
# gel (12% polyacrylamide gel) and transferred on 0.45 μm nitrocellulose membrane (Amersham Protran; GE Healthcare) for 1 h at 30 V. Details of LDS-PAGE are described in Supplementary Methods S7. The membrane was cut horizontally to obtain proteins of molecular weight between ~10 kDa to ~25 kDa. Subsequently, this membrane was sliced vertically to obtain 0.3 cm strips, which were then used in Western blot (Supplementary Fig.
# The NC strips with transblotted hBMECs proteins were first incubated with rDIII at various concentrations to find out the minimal concentration of rDIII required to detect the interaction with hBMECs proteins. Non-specific binding sites were blocked with 1% BSA in 0.05% TBST (pH 7.2) for 1 h at room temperature and constant shaking followed by a washing step for 5 min with 0.05% TBST. The NC strips were incubated with rDIII at different concentrations (5 µg, 2.5 µg, 2 µg, 1 µg, 500 ng) diluted in 1 mL of 0.05% TBST for 3 h at room temperature and constant shaking. After 3 washings with 0.05% TBST, strips were incubated with HisProbe-HRP conjugate (1:5,000 dilution in 0.1% BSA in 0.05% TBST; Thermo Fisher Scientific) for 30 min at room temperature. Six washings, each of 5 min were performed before incubating the strips in SuperSignal chemiluminescence substrate (Thermo Fisher Scientific). The signal was captured on the C-DiGit Blot Scanner (Odyssey CLx, LI-COR Biosciences). For negative control, rDIII was excluded from the above-mentioned protocol.
# To block the interaction, the NC strips were blocked as described above.
# Simultaneously, 2.5 µg (0.19 nM) of rDIII were pre-incubated with 2.75 µg of each peptide (10-fold molar excess; 1.9 nM) in TBS for 1 h at room temperature. Further on, strips were incubated with pre-incubated rDIII for 3 h at room temperature with constant shaking. After 3 washings with 0.05% TBST, strips were incubated with HisProbe-HRP conjugate as described above. […]
row,Molecule,inhibition of the interaction between rDIII and ~ 15 kDa hBMECs receptor (Western blot)
1,CDPRHSKFC (ACDPRHSKFCGGGS; disulfide 2-10 (inferred)) [CP15],did not show clear inhibition of the interaction
2,CMQTQRAHC (ACMQTQRAHCGGGS; disulfide 2-10 (inferred)) [CP6],did not show clear inhibition of the interaction
3,"SGVYKVAYDWQH (SGVYKVAYDWQHGGGS; left off: His6, N-terminal, cleaved | 28 aa tag, N-terminal, cleaved) [LP3]",did not show clear inhibition of the interaction

# Target: T2, rDIII (West Nile virus, UniProt P06935)
# T2 construct: rDIII – recombinant domain III; made in house; host or cells: E. coli M15
# T2 sequence (P06935 584-692 limits assumed): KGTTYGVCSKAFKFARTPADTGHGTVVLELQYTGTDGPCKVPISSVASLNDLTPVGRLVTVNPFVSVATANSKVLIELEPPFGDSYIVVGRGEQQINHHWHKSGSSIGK
# Experiment: ELISA of the binding of 7-mer cyclic and 12-mer linear peptides to rDIII
# Conditions: peptides coated through C-terminus in CovaLink NH plates; 1 µg rDIII; HisProbe-HRP; negative control subtracted
# Experimental: The 7-mer cyclic and 12-mer linear peptides were covalently bound in CovaLink NH microwell plates and their binding to rDIII was corroborated by ELISA. Details are presented in Supplementary Method S11.
# Confirmation of the binding of 7-mer cyclic and 12-mer linear peptides to rDIII by ELISA. The 7-mer cyclic and 12-mer linear peptides were covalently bound in CovaLink NH microwell plates overnight at 4°C as per the manufacturer´s instructions (Thermo Fischer Scientific).
# Unbound peptides were washed with PBS (pH 7.4) and non-specific sites were blocked with 0.5% BSA in PBS for 1 h at room temperature. After blocking, wells were washed 2 times for 2 min with CovaBuffer (2 M NaCl, 40 mM MgSO4.7H2O, 0.05% Tween 20, PBS; pH 7.2). One microgram of rDIII diluted in 0.05% PBST was added in separate wells and incubated for 1 h at room temperature with constant shaking. Wells were washed 3 times for 2 min with CovaBuffer and interaction was detected with HisProbe-HRP conjugate (1:5,000 dilution in 0.1% BSA in PBST; Thermo Fisher Scientific) for 30 min at room temperature with constant shaking. After 6 washings, the chromogenic reaction was developed using a 1-Step Ultra TMB-ELISA substrate (Thermo Fisher Scientific). After 25 min, the reaction was stopped with 2 M H2SO4 and absorbance was measured at 450 nm. For negative controls, either rDIII or peptides were excluded from the protocol. The assay was performed in triplicates. […]
row,Molecule,"A450, ELISA of peptide binding to rDIII"
1,CDPRHSKFC (ACDPRHSKFCGGGS; disulfide 2-10 (inferred)) [CP15],> 1.5
2,CMQTQRAHC (ACMQTQRAHCGGGS; disulfide 2-10 (inferred)) [CP6],> 1.5
3,CTNANHYFC (ACTNANHYFCGGGS; disulfide 2-10 (inferred)) [CP7],> 1.5
4,"HYSWSWIAYSPG (HYSWSWIAYSPGGGGS; left off: His6, N-terminal, cleaved | 28 aa tag, N-terminal, cleaved) [LP19]",0.082
5,"SGVYKVAYDWQH (SGVYKVAYDWQHGGGS; left off: His6, N-terminal, cleaved | 28 aa tag, N-terminal, cleaved) [LP3]",2.564 and > 1.5

# Target: T3, interaction between rDIII and proteins of hBMECs (West Nile virus, UniProt P06935)
# T3 construct: rDIII – recombinant domain III; made in house; host or cells: E. coli M15
# T3 sequence (P06935 584-692 limits assumed): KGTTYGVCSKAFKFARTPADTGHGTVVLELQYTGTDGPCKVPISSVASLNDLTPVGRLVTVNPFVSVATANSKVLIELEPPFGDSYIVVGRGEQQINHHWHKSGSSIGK
# Experiment: Blocking of interaction between rDIII and proteins of hBMECs by peptides (ELISA)
# Format: binding, West Nile virus / human
# Conditions: rDIII 0.15 nM pre-incubated with tenfold molar excess (1.5 nM) of peptide; ELISA
# Experimental: as §1
# Blocking of interaction between rDIII and proteins of hBMECs by peptides (ELISA). First, different concentrations of rDIII were tested to get the minimum concentration of rDIII required to show the interaction with hBMECs proteins. Protein extract of hBMECs (4 μg/well) diluted in coating buffer (0.5 M Na2CO3, 0.5 M NaHCO3; pH 9.5) was incubated in the microtiter wells for overnight at 4°C. Unbound hBMECs proteins were washed with PBS (pH 7.3) containing 0.05% Tween 20 (0.05% PBST) and non-specific binding sites were blocked with 0.5% BSA in 0.05% PBST. rDIII at different concentrations (5 µg, 2.5 µg, 2 µg, 1 µg, 500 […]
# ng, 250 ng, 125 ng, and 62.5 ng) diluted in 0.05% PBST was added into wells and incubated for 3 h at room temperature and constant shaking. Wells were washed 3 times with 0.05% PBST and incubated with HisProbe-HRP conjugate (1:5,000 dilution in 0.1% BSA in 0.05% PBST; Thermo Fisher Scientific) for 30 min at room temperature and constant shaking. […] The reaction was stopped after 25 min with 2 M H2SO4 and the absorbance was measured at 450 nm. […]
# After blocking, the wells were washed 3 times with 0.05% PBST, pre-incubated rDIII was added and incubated for 3 h at room temperature with constant shaking. […] The reaction was stopped after 25 min with 2 M H2SO4 and the absorbance was measured at 450 nm. hBMECs proteins incubated with untreated rDIII were used as a positive control. […]
row,Molecule,inhibition of the interaction between rDIII and hBMECs proteins [%]
1,CTNANHYFC (ACTNANHYFCGGGS; disulfide 2-10 (inferred)) [CP7],37

# Target: T4, recombinant domain III (DIII) of the envelope (E) glycoprotein of West Nile virus (West Nile virus)
# T4 chain: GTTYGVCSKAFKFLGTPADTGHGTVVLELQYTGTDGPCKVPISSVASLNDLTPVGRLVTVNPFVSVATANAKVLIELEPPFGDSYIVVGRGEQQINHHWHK
# Experiment: cell-based or functional assay
# Conditions: not given
row,Molecule,"neutralisation of infection of cultured cells by virus like particles (C, M and E proteins, luciferase reporter), EC50; the peptide blocks DIII binding to endothelial cells [nM]"
1,B1,2.43
2,B2,10.4
3,B3,14.8
4,B4,17

# Target: T4, recombinant domain III (DIII) of the …
# Experiment: ELISA; blocking ELISA: rDIII (2 µg, printed as 0.15 nM) pre-incubated 1 h at room temperature with a tenfold molar excess (1.5 nM) of peptide, then added to coated hBMEC proteins; negative control (no rDIII) subtracted
# Conditions: both partners purified
Molecule,A450 of rDIII on proteins of hBMECs after pre-incubation with the peptide,percent inhibition of rDIII binding to proteins of hBMECs [%]
B1,0.117,89
B2,0.418,61
B3,0.427,60
B4,0.346,67
B5,0.423,60
B6,0.56,47
B7,0.647,39
